Data: the domain aggregation screens of Martell et al. (2025)

Assay: soluble fraction after stress (log2 fold change); higher = more stays soluble; pooled small domains, quantitative proteomics
Settings: stress: 75 degC
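Note: 20 min heating vs room temperature control held 20 min.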

Row | Sequence | soluble fraction (log2)
1 | HMDTMQQESMDTKSILATALMELTSRKNFAKITIADITHVSGFNRQTFYYHFRDKYELLSWIY | -0.0387
2 | HMDTNRIIGNKIYQLRRSINMTQQELAEKVGISVTFLSEIENGRKSMSVDTLIKLSKGLQVSLDTIVF | -4.31
3 | HMDTPVYYYVNGNGVRMRKDASLESDILILLYKGTKVEYVDVKGEWIKVKYNNEIGYIRNDLLSAEMPD | -0.784
4 | HMDTQITPNKAKEIALAHAGVTEAAANFKKIKLDNKNGKSIYEIEFIANKSRYEFIVDAKNGSIIKFEK | -0.378
5 | HMDTRKEREIALYEAALRLIASGVNPAAMKVQQIADEAGIGKGTVYEYFASKEEILHGMALH | -0.218
6 | HMDTTLFGLFQNVILTQEDYEELSRTIVEDLDGLIDRLSAYMTSTGKTYKNHKATLLSWYLQDEKKFK | -1.78
7 | HMDTVEALTEQLKKLDKRGEGQIPAPEFKQYMMNMGGKMTAEELDEMMKVADPGKEGVVNIAEFADAL | 0.313
8 | HMDTVEFPVQVNGKVRGKITVAADAGKDAIETAALADEKVLAFLDGATPKKVIVVPGKLVNLVVQPG | 0.62
9 | HMDTVSYMSDAVKAGAVTPSHDEEARARYLLYAGFGAILLFLRYEASEPGDIESAIREFMERYGPVTAELY | 0.347
10 | HMDTYKGFIFEVVDKYFSPTLNQKIGQAKNKQGIVLLQTKPSFTQDPKVLIEELKLIIDRDNLKA | -1.07
11 | HMDVAAQITYAMRTMGVAPIPRNYELFYEAYIGSNPALTKELAALGSKATQEELDELGQQYF | -1.89
12 | HMDVFPDESLKAWLIEMGFKLDQKKMNVFTVLRRMLLQTAPSVKEFRILEIVLQQSRRKLKELNDLKKS | -0.00949
13 | HMDVKQSAAGVAGRIRFELNRTLTGQGHEKFTSASQAIGPRPAAELARRLFNSGSVVGVHVFANIVTVDLL | 0.136
14 | HMDVLKMKVEDLNIGSRTVNSLTAAKIKTVAGLIKKSKESLLELDGMGNKGVEEIILALKKLGLEL | -1.08
15 | HMDVPTEEAILAYNNVPIELAAKFIGWSDITIRYALQEERAPFGMAAQNPKTGTWSYNISPGLLLKYKSGE | -2.23
16 | HMDVPVEVFMERIVTALREGRKTTFSELMEGKPERGKVIGTFLALLQLSKGQQIQIHQEQRTGEISIEGGA | -0.328
17 | HMDVQTVTVIENVNVRKSASENGQKLGLAYTGEKLELLMKQADGWTRVKYNGETAYVKSDYV | 0.372
18 | HMDVTSLDMLRFLMDQHGLRQQDLSELGSQGVVSEILAGKRELNLRHIGALARRFKVPPEVFLPA | -0.778
19 | HMDVYKRQKLRNFIESLFEDAPKNKQTIELKEEMLQNLIDKYNDLVDSGKSSEAAYNIATAS | 0.131
20 | HMDWNPVRDITAHQVLAILQATHIRAPTVAAEAKRTLSSIFQFAVATLRADIDPVWPVRNALPKNKT | -0.262
21 | HMDYARYGLSEKEAELIELIAQGMNNKEISAEIYLSEGTVRNYISELLEKLELRDRTQLAVYYYTHR | -2.72
22 | HMDYDDLVPLDARGRLRLDGQDIILAFGRHRGRSIEEVHNHDKSYFDWLVSPAGGLEDEVIATLRERF | -0.613
23 | HMDYENGTVKWFNTKKGYGFITRENGEDLFVHFRNIKGRGRRSLNDGEPVTFVVIEGDKGLQADQVSA | -0.34
24 | HMDYGSLQRAIENQLEVRNYQKPKKFLTKIIQLMETIMVRHGVMVVGLTGTGKTTVIETLSRSMEQ | -0.591
25 | HMDYIGIQAAKEAALKDADISSEQAVFTMAELDNKNNIFYYQIMFTENGTEYRYDIDALTGVIIEKNHFF | -2.4
26 | HMDYKLDVNFPEMYLEQIPAEKRAALIQILEQDPRPSYQKDPVRIYGMSYAGMEIHFRVDKETLYVTEVER | -1.06

Row | Sequence | soluble fraction (log2)
27 | HMDYLSEFITDKVVRADGYSIRKGELSNEFKQWFITNVGTKNPKPKEIHDYMDRKFGKNKNGIWKNVKIKL | -0.492
28 | HMDYQEVEFEKLGKEILTKILLDINKKATKKTLKILIDGFNYDSYRSFYIAIGKAQISSDSILELLQH | -0.994
29 | HMDYSWNFFIGFSVVDKVAGNLGTIEEIDDKTINTLFLVKNDDEDLIIPATEDFVEKIDAKKRILYLNLPE | -2.51
30 | HMDYYASVDQVWRELGLAGPARRALIDDGLFKLSDLRKTSLAAVKELHGMGPNAIRILTTEMKKADLSFR | -2.15
31 | HMDYYDTLGVPRNASQSDIKKAYKKQSMQHHPDRTGGDDTKFKDVNEAYQVLSNSEKKQMYDQFGTA | 0.07
32 | HMDYYNILGVNKAATAQDIKRAYRKLAKEHHPDHGGDATRLQQVNEAYDTLKDPQRREQYDS | 0.215
33 | HMEAADAGTLAQRAAQYFNEKNYAAALDALERRAAMAPETTELRMMRGWSLLHLNRKDEARNAFATLG | -0.101
34 | HMEAAIRNALSRVENPDETQRARIYRTAHDALIRNLENRGITDPEQVRPQVSRLKDLISVIEREYHG | -0.131
35 | HMEAALTLRVDKAGSLRSLLSDEQYAKTSKIIVSGEINTLDIKTLQEMSGEKGSLQSIDLSQANIVAY | 0.0407
36 | HMEAFELTPREKQVLQLLVQGKAYKIIAADLDITYDTVRAHIKKIYEKLHVGSMTEAVAKAIQHKL | -2.08
37 | HMEAKKVIAVHIIGEINKPGIVELEEGARVIDAIKKAGGTTEKADLAQINLAYILKDGQKIYIPNTEDN | 0.254
38 | HMEALASESVKDKIRKIIDSEDPSRPMSDQRIKEMLKAANIDIARRTVTKYREAMNILSSTKRRQV | -0.432
39 | HMEALDPLTAREQEVLEMILSGKSNREIAAELHITENTVKTHAQSIYSKYDVRGRAKLISLLLKGEA | -0.406
40 | HMEALQKVSINYYDEGAGKQIAEVPLEVGAGDTEIALAVINKYMPAEYNLVSTDYQIRGGYVYVSVTPA | -0.49
41 | HMEAPPHEALSNREFQVLQLLSQGRSVTQIAHQLTLSANTISTYRARIFDKLGLHNPADLYAYAARHGLM | -2.41
42 | HMEAPWQEIKRQVMDGLDMSREFTDEELRERIALAVRSYSKEKLLSLKVRESYEEQIFNSFR | -1.05
43 | HMEAQFIDINDVRIGTYVYVDLGWIKHPFALNSFKITSRDQIDTLIKLGVKRIRWSPEKSDS | -3.18
44 | HMEARNDWAQQSRADAEFGGEKLDENLAVAKKAVEALASPELKTLLEQSGLGNHPEIIRLFYRAGRSLS | 0.0741
45 | HMEATILTATPEAAGQRLDAFLAETLPELTRSAAQRLIAEGQVAVDGKIPTKSLKLAGGETVSVRLPEPE | 0.734
46 | HMEAVIGGIYRHYKGNNYKLLAVATHSETLEKMAVYQALYGEMGIWVRPLAMFMETIEKDGQSLKRFE | -2.67
47 | HMEDAWMKKELWDAIATLPKKQRLVMTMRLTNNHSYKEIAAILGISENSAKVSYHHAVERLKEKFK | -2.23
48 | HMEDDPIYEQVMIFLLDKQITSAPELERRFKITHQRAIELLAQMEKTGIVSTMGHAGKRDVLT | -1.85
49 | HMEDEFNQIASQKNVPSFLGKGKKEVINIAKKNKIKINLSGNGYVKRQIPAPGEVISHLDEVTIFLEPG | -0.0115
50 | HMEDEVYFVPSPASRFNPWIAALASRRVPYRVEYDGAERRIAVPAGYAEKAGEELAAYERINHAWPR | -0.371
51 | HMEDFDLSDTERKIIAQIGHGYSNKEIAQKLGFSEGTIRNYLSVILDKLDLRDRTQLAIWYLSR | -0.592
52 | HMEDIAAIAQRIQGLRDIVGISVEEMAKALDISEQEYREYEKGETDFSFSFLYTVANVLGINITDLI | -1.29

Row | Sequence | soluble fraction (log2)
53 | HMEDIEEVIVEIDTVLRTHFDRGRTEVLFAEIETAGGRPFMTYLALLFMAHRGSVRLQQDDLFGDLWVKDP | 0.198
54 | HMEDISLYKILRAHSIDNLKLSQWIIDSLKTKFSTIGELQDAKIDDIRMYRIQDVRIEKIKNAVTEYMA | -1.08
55 | HMEDISQHAVKKLVQEMVMAEDPRDPLSDQQIAENLSRLGLKVARRTVAKYRAMLGIQPSNRRRK | -1.21
56 | HMEDIVDLVVEPEAAGRRLDAWLASRIERLSRSRIKALIESGHVAIGGATIVEAKKPVNSGDVVQLSVPEG | -0.263
57 | HMEDKQRRMGELVALLNRAAYAYYTKDEPIMADVQYDRLYDELLSLEKETGVQMADSPTHRV | 0.0301
58 | HMEDLMEERKEHLLSVMKDPAYVPMKQKELAMLLNVPKGLREELNQVLDALVAEGSVVMSKRGKYTIPQ | -0.0948
59 | HMEDNLVTYPNPTSDYIYVSKKVDLTVVNMLGDILIQKQNINVLDVTELTPGMYTIVIRYNNVTTNKRIIK | -0.017
60 | HMEDPFATLGVHREASLDEIKRAYRRLAMFWHPDRNPEAVAGTEFKRVHAAYELLLDPQRLAEWQQAQAT | -0.19
61 | HMEDPLAAQWKQGRKLFHDDYGYGIISKAFTAGDELVIMVQFENGGEKRFLPKYQAHNLLLVEQ | -1.33
62 | HMEDQVITQFNMRLIRAVMPQGAPMIVVYEDPKDYPGLFVARLFDGRKSTHLIALADTLEDI | -0.31
63 | HMEDVDTAALEKVIATAKGLNKNDYTATTWTTMQAALTNAEKALEAKKSQTSVDEAAKTLQAAIDGLKKAS | 0.336
64 | HMEDVPYMIKLPSHHYLTKMVDGSTGWSLVQNSNTVVGSSKEELLKQYPEYEDFIVQEPLNV | -0.0186
65 | HMEDVSTLAVKQRIDDLVKQENPAKPLSDSDIVARLKTDGIYIARRTVAKYRMELNIPSSSARKRAQQFS | -2.31
66 | HMEDWTPERFVGAFVSGGPALRDEILLAATKDLSHAQATRLLKLAEARGLVHRSQPGPSERVRFVVARK | -0.518
67 | HMEDYTPLQELGLKARYIELLEKGGIFSVEDLVQKSVDDLKDIDGIGEKTAKEIWEIVDSMVDF | 0.0226
68 | HMEDYYKEDYYTEVLKIPKEYIKGFQYYLIEDAEFVNALNAKNKTMTSFLAKKLASDYIEIIHQEQ | -2.2
69 | HMEEDDGVDFHERLTELNDEQVYYLINTEPAKVIALALDQLGQKRKINIMNRFNPDMKHSIIMELGKL | -0.543
70 | HMEEDGAPLESREVLLDQAISQGKGTQWTIATETKLEDHIVSGAYSTDGKVTLAVFSPLGDGKYEFSSSVN | 0.181
71 | HMEEDPIIIAQRFLNIFRQLHIFSEEKKESFNKMLLEQPAEIRGALRSLPGGGLLQDYIDDLESKA | -0.698
72 | HMEEEEITIHIIGEVKYPGIVILKTGQRIIDAIDAAGGETEEADLNKINLAQLLSDGDKIYVPSINDN | 0.158
73 | HMEEFAGYINGQPYYGPTHQHRGVKMVGAEHTQRPHPLVWDSVAKSLDNYDNRFQWVNGNLLQVV | -0.0201
74 | HMEEFGRRLKERMIDKNMTEAELAQKTELWSSILTSYLKGERFPGYYTLLRIAEALDVSIDFLLGLRDEPE | -2.72
75 | HMEEILLSVKADGTYWVDQKEVTLDEVGALLDKEPDRLLNIFMDEKVPVRHFINVVDIAKVKREGRFII | -0.27
76 | HMEEIQLILAKNLKSIREKEKLSLEKVSQLTGVSKTMIGQIERGDSSPTLTTIWKIANGLKVSFTSLINNP | -3.06
77 | HMEEKKYEVGDVVSFNYLYKNSFAEGKVSSLIHSGTITRIIDGRPAPYLINRGTGWLSNDLILT | -1.21
